Three molecules from patent publication US20170298375, “CONTROL OF CELLULOSE BIOSYNTHESIS BY OVEREXPRESSION OF A TRANSCRIPTION FACTOR” (Board of Trustees of Michigan State University, published 2017) can be followed below.

The target in data set [1] is GST (UniProt P08515 P08515:1-218). The data set can be described thus: EMSA; GST alone control. The note with it: tags: GST alone control; label: 32P. On the procedure: (§1) A GST-MYB46 fusion protein was first incubated with the wild type, double-stranded ³²P-labeled oligodeoxynucleotides with the wild type CESA4, CESA7 and CESA8 promoter sequences shown in FIG. 3A. The GST protein was used as control protein. Unlabeled competitor promoter oligonucleotides were then added the assays to generate the assay mixtures identified FIG. 3B, where the competitors were oligonucleotides with wild type and mutated CESA4, CESA7 and CESA8 promoter sequences shown in FIG. 3A. […] To generate the results shown FIG. 3B, each assay mixture was then subjected to an electrophoretic mobility shift assay (EMSA) by polyacrylamide gel electrophoresis (PAGE). […] The promoter regions used for the DNA probes in each experiment are indicated below the gel images. Competition for the protein-DNA binding was performed using 60× unlabeled probes. The free unbound DNA probes are indicated by the arrow.
(§2) DNA fragments for EMSA were obtained by PCR-amplification and labeled with [γ-³²P]ATP using T4 polynucleotide kinase (NEB). The end-labeled probes were purified with Microspin S-200 HR column (GE Healthcare). The labeled DNA fragments were incubated for 25 min with 50 ng of GST-MYB46 in a binding buffer [10 mM. Tris (pH 7.5), 50 mM KCl, 1 mM DTT, 2.5% glycerol, 5 mM MgCl₂, 100 μg/ml BSA, and 50 ng/μL poly(dI-dC)].

Data set [2] deals with T1, GST-MYB46 (Arabidopsis thaliana, UniProt Q9LXV2 SEQ:1-280). The data set can be described thus: EMSA; labelled fragment stated as -525 to -358 in text. The note with it: tags: GST fusion, E. coli Rosetta gami; label: 32P. Here is the method: as §1, §2
For data set [3], the target named is T1, GST-MYB46. The data set is described as follows: EMSA; labelled fragment stated as -248 to -69 in text; 5 mM MgCl2, 50 mM KCl, pH 7.5. The note with it: tags: GST fusion, E. coli Rosetta gami; label: 32P. Here is the method: as §1, §2
For data set [4], the target named is T1, GST-MYB46. The data set is described as follows: EMSA; labelled fragment stated as -662 to -486 in text. The following applies: tags: GST fusion, E. coli Rosetta gami; label: 32P. Here is the method: as §1, §2

Sequence of GST (P08515 whole entry, the tested form may be a part, one chain of several): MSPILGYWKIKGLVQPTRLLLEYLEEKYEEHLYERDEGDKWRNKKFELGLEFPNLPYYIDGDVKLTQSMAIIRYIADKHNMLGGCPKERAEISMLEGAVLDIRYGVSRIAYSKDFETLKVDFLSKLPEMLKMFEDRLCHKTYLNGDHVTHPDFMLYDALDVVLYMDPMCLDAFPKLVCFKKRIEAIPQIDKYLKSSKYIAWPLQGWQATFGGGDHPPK
T1 sequence (Q9LXV2 whole entry, the tested form may be a part): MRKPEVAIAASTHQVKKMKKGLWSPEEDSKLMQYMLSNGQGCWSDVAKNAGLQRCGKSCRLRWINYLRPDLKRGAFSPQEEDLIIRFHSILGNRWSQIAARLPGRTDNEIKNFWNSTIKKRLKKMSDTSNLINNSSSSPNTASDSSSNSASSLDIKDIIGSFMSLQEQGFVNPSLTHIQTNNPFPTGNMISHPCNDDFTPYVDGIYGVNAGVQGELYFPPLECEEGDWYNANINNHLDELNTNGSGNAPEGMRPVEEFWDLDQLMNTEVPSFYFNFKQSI

B1: ProCesA8wt (dsDNA)
DNA 1: CTTATAGAAAGTTGGTGATTGAAAA
DNA 2: TTTTCAATCACCAACTTTCTATAAG
Consider B1, for which the binding result in data set [1] is listed as “no binding”; in data set [2], “binds”.

B2: ProCesA4wt (dsDNA)
DNA 1: TCACTCACAGTTTGGTACAACCTCA
DNA 2: TGAGGTTGTACCAAACTGTGAGTGA
For the molecule B2, the binding result is “no binding” in data set [1] and “binds” in data set [3].

B3: ProCesA7wt (dsDNA)
DNA 1: CAGAAAATTCACCTAATTAAGGACA
DNA 2: TGTCCTTAATTAGGTGAATTTTCTG
As to B3, the binding result is “no binding” in data set [1] and “binds” in data set [4].
